Source: publication PMC7943577

Target: BOM1093 of Borrelia miyamotoi strain MYK3, 6xHis-tagged on the C terminus, expressed in B. garinii HT59G (Borrelia miyamotoi strain MYK3)
Assay: ELISA; Maxisorp wells coated with 0.5 µg/well sonicated B. garinii HT59G/pBOM1093 in TBS; recombinant human Vn 6.25-400 nM, 2 h at room temperature; detected with mouse anti-human Vn IgG; values of the mock strain (pBSV2) subtracted; KD fitted in Prism

## recombinant human vitronectin (from UniProt P04004 20-478) (natural protein)
  Kd: 10.8 nM
